Experimental data reported in patent publication US10617743B2, “Method to improve safety and efficacy of anti-cancer therapy” (CLS Therapeutics Limited, priority 2014, dated 2020).
Like-named read-outs stand apart in the source and are kept apart here.

Assays:
L1210 leukemia cells = experiment: Survival of mice transplanted with L1210 leukemia cells (FIG. 4); type: in vivo; conditions: DBA2 mice; AraC 1000 mg/kg IP Days 2, 5, 8; DNase II 15 or 45 mg/kg/day IP; alone or combined
Experimental: Treatment with DNase and AraC was initiated on Day 1 of experiment. Cytosine arabinoside (AraC; Cytosar, Pfizer) was injected IP at a dose of 1000 mg/kg on Days 2, 5 and 8. The injected doses were considered adequate for the model and injection route based on prior experiments (13-14). DNase II (Wornington) was injected IP at doses of 15 mg/kg/day and 45 mg/kg/day on Days 1, 3, 5, 8, 10, 12, 15, 17, and 19.
Animals were randomized into 6 experimental groups of 6 mice per group as follows: • 1. Group I: negative control (no treatment); • 2. Group II: positive control (animals treated with AraC); • 3. […]; • 4. Group IV: animals treated with AraC and 45 mg/kg DNase; • 5. Group V: animals treated with 15 mg/kg DNase, no AraC; • 6. Group VI: animals treated with 45 mg/kg DNase, no AraC.
The vertical axis of FIG. 4 represents the survival measured in days after implantation with the L1210 leukemia cells. The six experimental groups are represented on the horizontal axis: 1—Negative Control; 2—AraC (positive control); 3—AraC+DNase II 15 mg/kg; 4—AraC+DNase II 45 mg/kg; 5—DNase II 15 mg/kg 6—DNase II 45 mg/kg.

gastrointestinal lesions = type: in vivo, rats; conditions: for Total number of lesions per group: 16 rats
Experimental: On Day 1, Etoposide (LANCE) 200 mg/kg and 5-fluorouracil (5-FU; EBEWE) 400 mg/kg were given orally via feeding needle in 500 μl of a 9% glucose solution. Animals were divided into 4 groups of 16 rats each. […] Group I: IV placebo (WFI); • 2. Group II: human recombinant DNase I (Pharmsynthez OJSC) at 1.5 mg/kg (3000 KU/kg) dose IV; • 3. Group III: human recombinant DNase I (Pharmsynthez OJSC) at 50 mg/kg (100000 KU/kg) dose IV; • 4. Group IV: cimetidine solution (Gedeon Richter) at 50 mg/kg dose IV.
36 hours later, all animals were euthanized and their stomachs were removed and analyzed for the presence of erosions and hemorrhages using an automated video analyzer system.

Wistar male rats = conditions: for Number of dead/out of total in group: monitored 2 weeks
Text: Group I: control group (no Doxorubicin, no DNase); • 2.
Animals were monitored during 2 weeks from the beginning of experiment for survival and weight.

[1] = test system: white blood cell count (WBC); experiment: Cyclophosphamide-induced neutropenia in mice (FIG. 3); type: in vivo; conditions: for Effect on typical early phase decline in WBC count (FIG. 3): cyclophosphamide 200 mg/kg IP Day 1, DNase I 25 mg/kg/day IV or GM-CSF 200 μg/kg/day SC on Days 2-5
Experimental: 30 female 10-12 week old BALB/C mice (obtained from Rappolovo animal house) were used in this experiment. […] Starting on Day 2, mice were then treated as follows: • 1. Group I (n=10): control (no treatment); • 2. […] Group III (n=10): animals were treated with human recombinant GM-CSF (Neostim, Pharmsynthez OJSC) at 200 μg/kg/day dose injected subcutaneously (SC) on Days 2-5. […] The graph in FIG. 3 summarizes the dynamics of the white blood cell count (WBC) in the three experimental groups. The vertical axis represents WBC with units of 10^9 WBC/L. The horizontal axis represents the number of days after cyclophosphamide injection.

Erlich carcinoma cells = experiment: Survival of mice with Erlich carcinoma, DNase with or without radiotherapy; type: in vivo; conditions: for % Survival on Day 16: no radiotherapy
myocardium = experiment: Myocardial necrosis area in deceased rats challenged with doxorubicin (FIG. 1); type: in vivo; conditions: Doxorubicin 7.5 mg/kg IV, DNase I 15 mg/kg daily IP vs placebo
Experimental: FIG. 1 is a bar graph showing myocardial necrosis area in deceased rats challenged with sub-lethal IV doses of doxorubicin (7.5 mg/kg) and either daily IP injections of human recombinant DNase I (15 mg/kg) (black bar) or daily […] injections of placebo (WFI) (diagonal hatched bar). Serial myocardium microscopy samples from each heart were analyzed using an automated video analyzer to quantify the necrotic areas. The sum of necrotic area (Sna; nm^2) was calculated as a sum of necrotic areas in 30 serial slides from each individual autopsied heart (n=3 for DNase I-treated rats—black bar; n=5 for placebo-treated rats—diagonal hatched bar).
The hearts deceased rats challenged with sub-lethal doses of doxorubicin (7.5 mg/kg) from (Groups IV and V) were autopsied. Serial myocardium microscopy samples from each heart were analyzed using an automated video analyzer to quantify the necrotic areas. The sum of necrotic area (Sna; nm^2) was calculated as a sum of necrotic areas in 30 serial slides from each individual autopsied heart (n=3 for Group IV (FIG. 1, black bars); n=5 for Group V (FIG. 1, diagonal hatched bars)). Group IV received daily IP injections of human recombinant DNase I at 15 mg/kg dose, while Group V received daily IP injections of placebo (WFI).

[2] = Body weight of mice with Erlich carcinoma, DNase with or without radiotherapy; type: in vivo
thymocytes = experiment: Con A-induced lymphocyte blast transformation of thymocytes from paclitaxel-treated mice; type: in vivo; conditions: paclitaxel 20 mg/kg IV, DNase gamma 2 mg/kg IP
Experimental: 10 male 6-week-old (CBAxCS7Bl6) F1 mice (obtained from Rappolovo animal house) were given a single 20 mg/kg dose of paclitaxel (Paclitaxel-Teva) IV. A group of 5 paclitaxel treated mice were injected IP 1 hour later with recombinant mouse DNase gamma (USCN Life Science Inc.) at 2 mg/kg dose IP. A group of 5 untreated mice were injected IP at the same time with 1 ml of placebo (WFI) to serve as the control. All mice were killed 24 hours later by cervical dislocation. The thymuses from each group were collected and homogenized in a separator in RPMI 1640 media supplemented with 10% fetal calf serum. The suspension of thymocytes was filtered and sedimented in a centrifuge at 400×g for 2 minutes and then resuspended with the same media. Thymocytes were plated into 96 well plates (900,000 cells per well in 200 μl of RPMI 1640 supplemented with 10% fetal calf serum (FCS)) and incubated for 32 hours at 37° C., 100% humidity and 5% CO2 atmosphere. Each well was then supplemented with ^3H thymidine (1 μCi/10 μl/well) and Concanavalin A (ConA; 50 μl: 1.25 μg/ml). After 24 hours of further incubation, thymocytes were harvested and dried. Labeled ^3H thymidine incorporation was measured using a Beckman scintillation counter.

[3] = treatment 50 mg/kg IV 2 h after Etoposide 200 mg/kg + 5-FU 400 mg/kg per os
[4] = Doxorubicin 7.5 mg/kg/day IV 5 days with DNase I 15 mg/kg/day IP (Group IV) or placebo IP (Group V)
[5] = Doxorubicin 10.0 mg/kg/day IV 5 days with DNase I 15 mg/kg/day IP (Group VI) or placebo IP (Group VII)
[6] = DNase I 15 mg/kg/day IP with Doxorubicin IV 5 days
[7] = of 16 rats, treatment 50 mg/kg IV after Etoposide 200 mg/kg + 5-FU 400 mg/kg per os

Molecule: Nc1ccn([C@@H]2O[C@H](CO)[C@@H](O)[C@@H]2O)c(=O)n1 [AraC, cytosine arabinoside]
- Survival after implantation with L1210 leukemia cells (FIG. 4) (L1210 leukemia cells): better survival rates

Molecule: CN/C(=N/CCSCc1nc[nH]c1C)NC#N [Cimetidine, cimetidine, reference compound]
- Total number of lesions per group (gastrointestinal lesions; [3]): 40

Molecule: COc1cccc2c1C(=O)c1c(O)c3c(c(O)c1C2=O)C[C@@](O)(C(=O)CO)C[C@@H]3O[C@H]1C[C@H](N)[C@H](O)[C@H](C)O1 [Doxorubicin, reference compound]
- Number of dead/out of total in group (Wistar male rats; [4]): 5/6
- Number of dead/out of total in group (Wistar male rats; [5]): 6/6

Molecule: GM-CSF: human recombinant GM-CSF (Neostim, Pharmsynthez OJSC)
- Effect on typical early phase decline in WBC count (FIG. 3) [1]: not able to prevent it

B1: human recombinant DNase I: human recombinant DNase I (Pharmsynthez OJSC), deoxyribonuclease enzyme (protein, UniProt P24855 23-282, looked up)
Deoxyribonuclease-1: LKIAAFNIQTFGETKMSNATLVSYIVQILSRYDIALVQEVRDSHLTAVGKLLDNLNQDAPDTYHYVVSEPLGRNSYKERYLFVYRPDQVSAVDSYYYDDGCEPCGNDTFNREPAIVRFFSRFTEVREFAIVPLHAAPGDAVAEIDALYDVYLDVQEKWGLEDVMLMGDFNAGCSYVRPSQWSSIRLWTSPTFQWLIPDSADTTATPTHCAYDRIVVAGMLLRGAVVPDSALPFNFQAAYGLSDQLAQAISDHYPVEVMLK
- Effect on lethality of doxorubicin (Wistar male rats; [6]): suppresses the lethality of doxorubicin
- Effect on life span of rats challenged with sub-lethal doses of doxorubicin (Wistar male rats; [6]): increases the life span
- Number of dead/out of total in group (Wistar male rats; [4]): 3/6
- Number of dead/out of total in group (Wistar male rats; [5]): 6/6
- Survival rates versus non-treated mice (Erlich carcinoma cells; DNase I alone (Groups 2 and 3)): better survival rates
- % Survival on Day 16 (Erlich carcinoma cells; Group 2: DNAse I 20 mg/kg/day intramuscularly in 2 daily doses): 40%
- % Survival on Day 16 (Erlich carcinoma cells; Group 3: DNAse I 40 mg/kg/day intramuscularly in 2 daily doses): 50%
- Survival of combination of radiation therapy and DNase versus either treatment alone (Erlich carcinoma cells; Groups 4 and 5, dose-dependent on DNase): clear survival advantage
- Effect on neutropenia induced by cyclophosphamide (FIG. 3) ([1]; cyclophosphamide 200 mg/kg IP Day 1, DNase I 25 mg/kg/day IV Days 2-5): ameliorates neutropenia
- Effect on typical early phase decline in WBC count (FIG. 3) [1]: prevents the typical early phase decline in WBC count
- Total number of lesions per group (gastrointestinal lesions; treatment 1.5 mg/kg IV 2 h after Etoposide 200 mg/kg + 5-FU 400 mg/kg per os): 60
- Total number of lesions per group (gastrointestinal lesions; [3]): 16
- Achieved protection compared to 1.5 mg/kg DNase I dose and 50 mg/kg dose of cimetidine (gastrointestinal lesions; DNase I 50 mg/kg IV, rats treated with etoposide and 5-FU): significantly superior
- Number of lesion free animals (gastrointestinal lesions; of 16 rats, treatment 1.5 mg/kg IV after Etoposide 200 mg/kg + 5-FU 400 mg/kg per os): 5
- Number of lesion free animals (gastrointestinal lesions; [7]): 12
- Number of lesion free animals (percent) (gastrointestinal lesions; [7]): 75%
- Effect on chemotherapy-induced ulceration (gastrointestinal lesions; rats treated with etoposide and 5-FU, dose-dependent (1.5 and 50 mg/kg IV)): suppresses chemotherapy-induced ulceration
- Effect on myocardial necrosis area (FIG. 1) (myocardium): decreases the myocardial necrosis area
- Change in Median Body Weight on Day 16 ([2]; Group 4: radiotherapy 200 cGy per day for 5 days plus DNAse I 20 mg/kg/day intramuscularly): 0 g
- Effect on body weight loss induced by radiotherapy ([2]; mice with Erlich carcinoma, radiotherapy plus DNase I): clearly prevents the body weight loss

B2: DNase gamma: recombinant mouse DNase gamma (USCN Life Science Inc.) (protein, UniProt O55070 26-310, looked up)
Deoxyribonuclease gamma: LRLCSFNVRSFGASKKENHEAMDIIVKIIKRCDLILLMEIKDSSNNICPMLMEKLNGNSRRSTTYNYVISSRLGRNTYKEQYAFVYKEKLVSVKTKYHYHDYQDGDTDVFSREPFVVWFHSPFTAVKDFVIVPLHTTPETSVKEIDELVDVYTDVRSQWKTENFIFMGDFNAGCSYVPKKAWQNIRLRTDPKFVWLIGDQEDTTVKKSTSCAYDRIVLCGQEIVNSVVPRSSGVFDFQKAYDLSEEEALDVSDHFPVEFKLQSSRAFTNNRKSVSLKKRKKGNRS
- Effect on taxane-induced suppression of thymocytes' proliferative activity (thymocytes): ameliorates taxane-induced suppression
